Results as given in patent US20260109774A1 (JUNO THERAPEUTICS, published 2026).
Residue numbers refer to the chain shown, from its start.

T1: human B-cell maturation antigen (BCMA) on cells (human, UniProt Q02223 1-184)
T1 construct: Recombinant on HEK293 or K562 cells, or endogenous on cell lines (H929, RPMI 8226, OPM2, MM1S, Daudi); also called hBCMA; huBCMA
T1 chain: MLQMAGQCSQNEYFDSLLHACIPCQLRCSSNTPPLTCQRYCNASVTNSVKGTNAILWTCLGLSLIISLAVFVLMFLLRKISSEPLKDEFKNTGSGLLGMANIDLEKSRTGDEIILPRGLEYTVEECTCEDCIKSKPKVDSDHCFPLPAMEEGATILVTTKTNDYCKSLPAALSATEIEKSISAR

B1: BCMA-18 scFv (scFv)
scFv: EVQLLESGGGLVQPGGSLRLSCAASGFTFSSYWMSWHRQAPGKGPEWVAHINQDGSEKYYVDSVKGRFTISRDNAESSLYLQMNSLRAEDTAVYYCARWLAVTNWGQGTLVTVSSGGGGSGGGGSGGGGSQSVLTQPPSASGTPGQRVTISCSGSGSNIGSNDVSWYQQIPGTAPKLLIYWNDQRPSGVPDRFSGSKSGTSASLAISGLRSEDEADYYCAAWDDSLNGWVFGGGTKLTVL
B2: BCMA-21 scFv (scFv)
scFv: EVQLVESGGGLVKPGGSLKLSCAASGFTFSDYYMSWIRQAPGKGLEWVSYISSSGSTIYYADSVKGRFTISRDNAKNSLYLQMNSLRAEDTAVYYCAKVDGGYTEDYWGQGTLVTVSSGGGGSGGGGSGGGGSQSVLTQPPSASGTPGQRVTISCSGSGSNIGSNDVSWYQQIPGTAPKLLIYWNDQRPSGVPDRFSGSKSGISASLAISGLRSEDEADYYCAAWDDSLNGYVFGTGTKVTVL
B3: BCMA-22 scFv (scFv)
scFv: EVQLVESGGGLVKPGGSLRLSCAASGFTFSDYYMSWIRQAPGKGLEWVSYISSSGSTIYYADSVKGRFTISRDNAKNSLYLQMNSLRAEDTAVYYCAKVDGDYTEDYWGQGTLVTVSSGGGGSGGGGSGGGGSQSALTQPASVSGSPGQSITISCTGSSSDVGKYNLVSWYQQPPGKAPKLIIYDVNKRPSGVSNRFSGSKSGNTATLTISGLQGDDEADYYCCSYGGSRSYVFGTGTKVTVL
B4: BCMA-40 scFv (scFv)
scFv: B3 scFv with G163S, V240L
B5: BCMA-24 scFv (scFv)
scFv: EVQLVQSGGGLVKPGGSLRLSCAASGFTFSDYYMSWIRQAPGKGLEWVSGISWNSGSIGYADSVKGRFTISRDNAKNSLYLQMNSLRAEDTAVYYCARDLGPPYGDDAFDIWGQGTMVTVSSGGGGSGGGGSGGGGSDIVMTQSPDSLAVSLGERATINCKSSQSVLYSSNNKNYLAWYQQKPGQPPKLLIYWGSTRESGVPDRFSGSGSGTDFTLTISSLQAEDVAIYHCQQYISLPWTFGQGTKVEIK
B6: BCMA-32 scFv (scFv)
scFv: QVQLVESGGGLVKPGGSLRLSCAASGFTFSDYYMSWIRQAPGKGLEWVSYISSSGSTIYYADSVKGRFTISRDNAKNSLYLQMNSLRAEDTAVYYCAKVDGPPSFDIWGQGTMVTVSSGGGGSGGGGSGGGGSQTVVTQPPSVSVAPGQTARITCGGNNIGSKGVHWYRQRPGQAPEVVIYDDSDRPSGVPDRFSGSNSGNTATLTVRGVEAGDEADYYCQVWDSSSDHWVFGGGTKLTVL
B7: BCMA-34 scFv (scFv)
scFv: TGQLVQSGGGLVQPGRSLRLSCAASGFTFDDYAMHWVRQAPGKGLEWVSGISWNSGSIGYADSVKGRFTISRDNAKNSLYLQMNSLRAEDTAVYYCARDLGPDYDPDAFDIWGQGTMVTVSSGGGGSGGGGSGGGGSEIVMTQSPATLSLSPGDRATLSCRASQSISNYLAWYQQKPGQAPRLLIYDASNRATGIPARFSGSGSGTDFTLTISSLEPEDFAVYYCQQRSNWPPYTFGQGTKLDIK
B8: BCMA-35 scFv (scFv)
scFv: EVQLVQSGGGLVKPGGSLRLSCAASGFTFSDYYMSWIRQAPGKGLEWVSYISSSGSTIYYADSVKGRFTISRDNAKNSLYLQMNSLRAEDTAVYYCARVDGDYDDYWGQGTLVTVSSGGGGSGGGGSGGGGSNFMLTQPPSVSVAPGQTARITCGANNIGSKSVHWYQQKPGQAPMLVVYDDDDRPSGIPERFSGSNSGNTATLTISGVEAGDEADYFCHLWDRSRDHYVFGTGTKLDIK
B9: BCMA-36 scFv (scFv)
scFv: QVQLVQSGGGLVKPGGSLRLSCAASGFTFSDYYMSWIRQAPGKGLEWVSYISSSGSTIYYADSVKGRFTISRDNAKNSLYLQMNSLRAEDTAVYYCARVDGDYVDDYWGQGTLVTVSSGGGGSGGGGSGGGGSQSVLTQEPSLTVSPGETVTLTCGSSTGPVTSAHSPSWFQKKPGQAPTTLIYETTNRHSWTPARFSGSLLGGKAALTLSGAQPEDEADYYCLLSSGDARMVFGGGTKLTVL

Target: T1, human B-cell maturation antigen (BCMA) …
Assay: flow cytometry on BCMA-expressing HEK293 cells vs control cells, crude lysate or bacterial supernatant; clone listed in Table E2
Experimental: Specific binding of resulting scFv clones to BCMA-expressing HEK293 cells, as compared to control cells not expressing BCMA, was assessed by flow cytometry either with in vitro translated crude cell lysate or with bacterially-produced supernatant.

Binder	binding result
B1	binds
B2	binds
B3	binds
B4	binds
B5	binds
B6	binds
B7	binds
B8	binds
B9	binds
